{"source": "patent US20190144507A1", "about": "(GlaxoSmithKline, published 2019)", "target": "T1, VZV gH (VZV (strain ), UniProt Q775J3 18-841)", "T1 sequence": "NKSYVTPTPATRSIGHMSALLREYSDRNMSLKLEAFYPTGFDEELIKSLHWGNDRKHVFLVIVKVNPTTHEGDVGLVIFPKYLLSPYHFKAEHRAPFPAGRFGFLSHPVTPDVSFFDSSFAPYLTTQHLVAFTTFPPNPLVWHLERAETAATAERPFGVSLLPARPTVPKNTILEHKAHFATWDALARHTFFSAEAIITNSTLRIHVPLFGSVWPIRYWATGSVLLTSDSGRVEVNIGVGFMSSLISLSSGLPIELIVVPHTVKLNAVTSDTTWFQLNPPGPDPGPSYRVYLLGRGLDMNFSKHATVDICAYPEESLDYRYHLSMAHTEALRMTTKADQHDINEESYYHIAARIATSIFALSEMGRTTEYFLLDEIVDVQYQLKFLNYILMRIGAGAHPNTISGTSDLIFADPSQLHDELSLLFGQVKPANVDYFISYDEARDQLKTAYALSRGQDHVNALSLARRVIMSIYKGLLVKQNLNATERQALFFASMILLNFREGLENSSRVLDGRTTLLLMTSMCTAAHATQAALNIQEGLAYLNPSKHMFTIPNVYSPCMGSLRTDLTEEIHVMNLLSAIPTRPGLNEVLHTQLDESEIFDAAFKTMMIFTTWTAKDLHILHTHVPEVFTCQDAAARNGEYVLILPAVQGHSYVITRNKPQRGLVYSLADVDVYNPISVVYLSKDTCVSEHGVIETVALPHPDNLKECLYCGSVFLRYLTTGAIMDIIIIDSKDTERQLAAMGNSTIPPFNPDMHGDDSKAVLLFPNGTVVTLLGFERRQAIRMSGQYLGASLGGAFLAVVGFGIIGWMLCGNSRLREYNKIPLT", "test": "immunofluorescence with antibody SG3 on transfected BHK-V cells", "data": [{"binder": "VZV gL (other) LHLQDDTPLFFGAKPLSDVSLIITEPCVSSVYEAWDYAAPPVSNLSEALSGIVVKTKCPVPEVILWFKDKQMAYWTNPYVTLKGLTQSVGEEHKSGDIRDALLDALSGVWVDSTPSSTNIPENGCVWGADRLFQRVCQ", "values": [{"measurement": "binding result", "result": "binds"}]}]}
